# This sample holds only a part of the variants without activity.
# B1: TPR 5TU (parent)
# chain: GGAUCUUCUCGAUCUAACAAAAAAGACAAAUCUGCCACAAAGCUUGAGAGCAUCUUCGGAUGCAGAGGCGGCAGCCUUCGGUGGCGCGAUAGCGCCAACGUUCUCAACUAUGACACGCAAAACGCGUGCUCCGUUGAAUGGAGUUUAUCAUG
# Variants of: B1
# Assay: polymerase ribozyme fitness, log enrichment relative to wild type (log ratio); higher = more active; in vitro selection for triplet polymerase activity
# In short: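 Mutant libraries for each subunit of a heterodimeric triplet polymerase ribozyme were made by PCR and then transcribed. Each library underwent one round of in vitro selection in triplicate: annealing with a biotinylated primer, the partner subunit and triplets, frozen incubation at −7 °C, gel excision of extended constructs, streptavidin-bead capture and RT-PCR. Input and output libraries were Illumina-sequenced, and only genotypes with ≥10 input reads and ≥1 read per output were kept. Fitness is the logarithm, base 2, of genotype enrichment over wild-type enrichment, computed from inverse-variance-weighted replicate averages.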
row,Variant,polymerase ribozyme fitness (log ratio)
1,U4C C5G U55A C75A G88C G133U,-4.17
2,U6C C14U C38U U61A U145C,-4.04
3,U4C C5A A24U A41G G46C C85U C96G,-3.3
4,C5G A24U G81C,-0.313
5,C5U A20C G59A A60G C69A A98G,-2.12
6,C5A A26C A30U A52C G70A G86C,≤ -4.2
7,U6C C96G C105U,-0.764
8,U4G G11C A40U G50C G83U,≤ -4.2
9,U4C G58A G83A C85U,-1.97
10,U4C C51U C96A A121C U134A,-3.3
11,C5A A89G C95G C132U,-3.03
12,C5A A24C G48U G65C C87U C99U A121G,≤ -4.2
13,C5G C38G G68C U135A G141A,≤ -4.2
14,U4A G143U,-3.47
15,U4C A23C A37G U53A,≤ -4.2
16,C5U C38G A66U G94C,≤ -4.2
17,C5A G92C,-1.76
18,U4C A52G G58U,-0.303
19,U4A C10U A26U U31G A39G C57A C85A U90G A113C,≤ -4.2
20,C5G C93A,-2.55
21,U4A C36A A52C A73G C95U,≤ -4.2

row,Variant,polymerase ribozyme fitness (log ratio)
1,C5A C10U A41C A49C U139G U151G,≤ -4.2
2,C5G A20C,-0.472
3,C5G C32U G84U,-3.82
4,U4C U7C A17U A41C G68C U78A C99A C103G,≤ -4.2
5,U6A A41C U45A A49G G59U G86A,≤ -4.2
6,C5G G136A,0.0107
7,U6C A22U A26U G84A U144A,-4.15
8,U4G G58A,0.794
9,U4C A24U G81A C85U A89C,-0.962
10,U4G A20G C35U G94C A97G C118A A137G A142U,-4.11
11,C5G U15A U45G U82C G92A A150U,≤ -4.2
12,C5U C38U C54U G94U A115U A119G G136U A147U,-3.8
13,C5G C76U,-0.335
14,U4C C85A C95G A115G,-3.75
15,U6A G86U,-1.41
16,C5A C57U G59C C96G U101G,-0.41
17,U6A G58C G94A,-0.942
18,C5A U44C C76A G84A C131U A150U,≤ -4.2
19,U6A G62A C76A A91U A121U C123A A138C G141U,≤ -4.2
20,U4C U15C A22C A29U C43G U44A U45G C57U G59U C93U,≤ -4.2
21,C5G U77A G94U G140C G152A,≤ -4.2

row,Variant,polymerase ribozyme fitness (log ratio)
1,C5A G11A G84A C95A C103U C116U,-1.5
2,C5U A41U G83A,-1.02
3,C5G A39U C57A G59U G83U C103G C116U,≤ -4.2
4,C5G A30U G59A C87G C108U U148A,≤ -4.2
5,C5G A19U A37U U45A U61A C87U,≤ -4.2
6,C5G G67U G70C G86A C132G,≤ -4.2
7,U6C A16U A17G C85U A89G,≤ -4.2
8,C5G G84U,-2.38
9,C5A A16G G50U C51A A89U U134G A137G G140A A142C A147C,≤ -4.2
10,U4A C38U A41U G59A A137U,-4.07
11,U4G U15G A30G A41U G46U C69G C76U C93G G143C,≤ -4.2
12,C5G A23C A66G C69U A91G C105G A120U,≤ -4.2
13,C5G C105U,-0.0507
14,U6A G83C,-0.841
15,C5A U13C C38U A121G U127C,-4.07
16,C5A C57A A119U A137G U146G,-2.37
17,C5A A17U G83A U146G,-0.599
18,C5A A21G A41C A64U C85A C96U A110U G117U,≤ -4.2
19,C5A C27U U33G C79A,≤ -4.2
20,C5U G46A U61G,-4.13
21,C5A U9C C10G A26U U90G A137G A142U,≤ -4.2

row,Variant,polymerase ribozyme fitness (log ratio)
1,U6C C10A U13A C35G C36G A37G G81U G83C,≤ -4.2
2,C5A A20G A22C C35A U77G C87A A115C G124C,≤ -4.2
3,C5U A47G C79A A138G,≤ -4.2
4,C5G C32U A91G A115G,≤ -4.2
5,U4C U7G C87A G100A U101A,≤ -4.2
6,U4G A12G A22U U53A C72G G100A U111G C125U,≤ -4.2
7,U4A G94A,-0.663
8,U6C A23G U61A,≤ -4.2
9,U6A U13A C35G A110G A142G,-3.55
10,U6A C10A U31A A49C U53A C76G G81A G92A A106G G117A,≤ -4.2
11,C5G C8A C27U A49C U56A G94A C95G U109G,≤ -4.2
12,C5G C54G U56G C95U C125U C129A G133U,≤ -4.2
13,U4C G25U C79A C93G U111C,≤ -4.2
14,U6A A21U C76A G86U,-2.79
15,U4A G92U,-0.358
16,C5A U7C G92C U139G,-1.27
17,U6C C32U G84A G88C U111C A150U,≤ -4.2
18,U4A C54A C95A A138C,≤ -4.2
19,C5U A52U A64C G70C C85A C116G A122U C125U A150G,≤ -4.2
20,C5G A19U A91G A113G,≤ -4.2

# Reference: the RNAGym collection of RNA variant scans (doi:10.1073/pnas.2313332121)
